Test results from publication PMC4215226, “The Chlamydia Effector TarP Mimics the Mammalian Leucine-Aspartic Acid Motif of Paxillin to Subvert the Focal Adhesion Kinase during Invasion*” (The Journal of Biological Chemistry, 2014).

Biological target: focal adhesion kinase (FAK) (human (endogenous in HeLa), UniProt Q05397 1-1052)
Experiment: cell-based or functional assay

Chain of focal adhesion kinase (FAK) (Q05397 whole entry): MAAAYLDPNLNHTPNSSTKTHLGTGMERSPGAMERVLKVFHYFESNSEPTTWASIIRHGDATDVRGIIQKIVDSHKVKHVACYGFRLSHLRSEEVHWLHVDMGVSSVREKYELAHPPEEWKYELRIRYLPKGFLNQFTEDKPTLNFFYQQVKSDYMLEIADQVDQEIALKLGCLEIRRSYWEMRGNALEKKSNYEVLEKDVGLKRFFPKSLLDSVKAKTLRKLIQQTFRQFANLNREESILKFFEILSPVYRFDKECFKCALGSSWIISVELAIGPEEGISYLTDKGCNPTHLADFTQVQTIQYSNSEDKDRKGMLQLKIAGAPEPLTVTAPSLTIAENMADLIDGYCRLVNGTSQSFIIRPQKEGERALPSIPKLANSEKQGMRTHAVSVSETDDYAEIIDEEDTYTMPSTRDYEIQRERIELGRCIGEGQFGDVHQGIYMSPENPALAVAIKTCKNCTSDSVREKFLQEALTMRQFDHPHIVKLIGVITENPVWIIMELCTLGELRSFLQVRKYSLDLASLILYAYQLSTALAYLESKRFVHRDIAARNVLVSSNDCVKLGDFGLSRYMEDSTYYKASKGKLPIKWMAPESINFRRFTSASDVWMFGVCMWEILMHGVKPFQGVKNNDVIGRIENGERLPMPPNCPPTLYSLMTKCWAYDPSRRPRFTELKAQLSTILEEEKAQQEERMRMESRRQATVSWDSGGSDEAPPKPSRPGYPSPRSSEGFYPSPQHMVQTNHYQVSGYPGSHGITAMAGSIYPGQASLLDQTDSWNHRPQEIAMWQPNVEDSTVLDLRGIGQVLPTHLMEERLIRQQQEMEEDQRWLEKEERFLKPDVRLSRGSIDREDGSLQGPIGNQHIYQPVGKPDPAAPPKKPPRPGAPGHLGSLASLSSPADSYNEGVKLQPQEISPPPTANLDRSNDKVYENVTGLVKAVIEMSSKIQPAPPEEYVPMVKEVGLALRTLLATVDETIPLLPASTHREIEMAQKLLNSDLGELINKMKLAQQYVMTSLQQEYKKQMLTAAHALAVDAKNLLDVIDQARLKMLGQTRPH

B1: Cya18-Pax-LD2 (domain or fragment, UniProt P49024 125-186, looked up)
chain: KSAEPSPTMTSTSLGSNLSELDRLLLELNAVQHNPPSGFSADEVSRSPSLPNVTGPHYVIPE
For B1, which “colocalisation of endogenous pY397-FAK with adhered Δtir EPEC in Cos7 cells expressing TirM-Pax-LD2, increase relative to the TirM-only negative control” value is on record?
The value was 2.4 fold.
